According to PMC9352680, “A comprehensive thermodynamic model for RNA binding by the Saccharomyces cerevisiae Pumilio protein PUF4”:

T1: PUF4 RNA-binding domain (Saccharomyces cerevisiae, UniProt P25339 537-888)
T1 sequence: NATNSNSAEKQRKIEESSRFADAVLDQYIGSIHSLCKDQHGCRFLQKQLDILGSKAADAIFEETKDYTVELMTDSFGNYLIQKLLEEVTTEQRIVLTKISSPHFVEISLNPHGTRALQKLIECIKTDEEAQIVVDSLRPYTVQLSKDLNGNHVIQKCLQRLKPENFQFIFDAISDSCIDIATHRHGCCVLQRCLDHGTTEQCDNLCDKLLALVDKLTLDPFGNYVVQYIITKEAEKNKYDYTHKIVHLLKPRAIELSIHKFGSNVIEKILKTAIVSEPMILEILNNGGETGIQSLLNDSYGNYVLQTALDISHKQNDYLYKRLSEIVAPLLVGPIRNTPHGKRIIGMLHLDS

B1: Id_iii_S4_P5E.5_K5.1_C5.3_H5.1_A5.1_F5.1_T5.2_[A12C] (ssRNA)
RNA: UUUGACAACUGAUCGUUCUUUCUUCUUGUAUUAUUAUCUUCUUUCUCGAUCAGUUGUCUUU
B2: Id_iii_S4_P5E.5_K5.1_C5.3_H5.1_A5.1_F5.1_T5.2_[A12T] (ssRNA)
RNA: UUUGACAACUGAUCGUUCUUUCUUCUUGUAUUAUUAUUUUCUUUCUCGAUCAGUUGUCUUU
B3: Id_iii_S4_P5E.7_K5.3_C5.3_[T-1C]_H5.3_A5.1_F5.1_T5.2 (ssRNA)
RNA: UUUGACAACUGAUCGUUCUUUCUUCCACACUUAUUAUAUUCUUUCUCGAUCAGUUGUCUUU
B4: Id_iii_S4_P5E.7_K5.3_C5.3_[C-2T]_H5.3_A5.1_F5.1_T5.2 (ssRNA)
RNA: UUUGACAACUGAUCGUUCUUUCUUUUACACUUAUUAUAUUCUUUCUCGAUCAGUUGUCUUU
B5: Id_iii_S4_P5E.8_K5.4_C5.3_H5.1_A5.2_F5.1_T5.2_[A12C] (ssRNA)
RNA: UUUGACAACUGAUCGUUCUUUCUUCUUGUAAUAUUAUCUUCUUUCUCGAUCAGUUGUCUUU
B6: Id_iii_S4_P5E.7_K5.3_C5.3_[C-2A]_H5.3_A5.1_F5.1_T5.2 (ssRNA)
RNA: UUUGACAACUGAUCGUUCUUUCUUAUACACUUAUUAUAUUCUUUCUCGAUCAGUUGUCUUU
B7: Id_iii_S4_P5E.8_K5.4_C5.3_[C-2G]_H5.1_A5.2_F5.1_T5.2 (ssRNA)
RNA: UUUGACAACUGAUCGUUCUUUCUUGUUGUAAUAUUAUAUUCUUUCUCGAUCAGUUGUCUUU
B8: Id_iii_S4_P4E.7_K4.3_C4.3_[C-2A]_H4.3_A4.1_F4.1_T4.2 (ssRNA)
RNA: UUUGACAACUGAUCGUUCUUUCUUAUACACUAUUAGUUUCUUUCUCGAUCAGUUGUCUUU
B9: Id_iii_S4_P4E.8_K4.4_C4.3_H4.1_A4.2_F4.1_T4.2_[T11C] (ssRNA)
RNA: UUUGACAACUGAUCGUUCUUUCUUCUUGUAUUUUAGCUUCUUUCUCGAUCAGUUGUCUUU
B10: Id_iii_S4_P4E.8_K4.4_C4.3_[T-1C]_H4.1_A4.2_F4.1_T4.2 (ssRNA)
RNA: UUUGACAACUGAUCGUUCUUUCUUCCUGUAUUUUAGUUUCUUUCUCGAUCAGUUGUCUUU
B11: Id_iii_S4_P4E.7_K4.3_C4.3_H4.3_A4.1_F4.1_T4.2_[T11C] (ssRNA)
RNA: UUUGACAACUGAUCGUUCUUUCUUCUACACUAUUAGCUUCUUUCUCGAUCAGUUGUCUUU
B12: Id_iii_S4_P4E.8_K4.4_C4.3_[C-2T]_H4.1_A4.2_F4.1_T4.2 (ssRNA)
RNA: UUUGACAACUGAUCGUUCUUUCUUUUUGUAUUUUAGUUUCUUUCUCGAUCAGUUGUCUUU
B13: Id_iii_S4_P4E.8_K4.4_C4.3_H4.1_A4.2_F4.1_T4.2_[G10C] (ssRNA)
RNA: UUUGACAACUGAUCGUUCUUUCUUCUUGUAUUUUACUUUCUUUCUCGAUCAGUUGUCUUU
B14: Id_iii_S4_P4E.8_K4.4_C4.3_[T-1G]_H4.1_A4.2_F4.1_T4.2 (ssRNA)
RNA: UUUGACAACUGAUCGUUCUUUCUUCGUGUAUUUUAGUUUCUUUCUCGAUCAGUUGUCUUU
B15: Id_iii_S4_P4E.8_K4.4_C4.3_[C-2A]_H4.1_A4.2_F4.1_T4.2 (ssRNA)
RNA: UUUGACAACUGAUCGUUCUUUCUUAUUGUAUUUUAGUUUCUUUCUCGAUCAGUUGUCUUU
B16: Id_iii_S4_P4E.8_K4.4_C4.3_[T-3C]_H4.1_A4.2_F4.1_T4.2 (ssRNA)
RNA: UUUGACAACUGAUCGUUCUUUCUCCUUGUAUUUUAGUUUCUUUCUCGAUCAGUUGUCUUU

The binders below were run against T1, PUF4 RNA-binding domain (assay: Mg; RNA-MaP; 20 mM Na-HEPES pH 7.4, 30 mM KOAc, 0.75 mM MgCl2, 0.1% Tween-20, 5% glycerol, 0.1 mg/mL BSA, 2 mM DTT; 25 C; 0.0125-409.6 nM protein). Settings: tags: N-His6-TEV cleaved; C-SNAP kept, Cy3B-labelled; label: tethered on chip by stalled RNA polymerase.
UCUCUUCUCCCUUUGUAUAUAUAUCUCUU (ssRNA) [Ie_S1_P3E.2_K3.1_C3.2_[+-1CCCTT]_H3.1_A3.1_F3.1_T3.2] showed a Kd of 6.24 nM.
UCUCUUCUUUCUGUAUAUAUAUCUCUU (ssRNA) [Ie_S1_P3E.2_K3.1_C3.2_H3.1_[+1TCT]_A3.1_F3.1_T3.2] was tested, and the Kd was 3.95 nM.
UCUCUUCCUCUUUGUAUAUAUAUCUCUU (ssRNA) [Ie_S1_P3E.2_K3.1_C3.2_[+-2CTCT]_H3.1_A3.1_F3.1_T3.2] gave a Kd of 4.97 nM.
In the case of UCUCUUCUUUGUAUAUAUAUCUCUU (ssRNA) [Ie_S1_P3E.2_K3.1_C3.2_[+-2T]_H3.1_A3.1_F3.1_T3.2], the Kd is reported as 4.55 nM.
Work on UCUCUUCUUUUGUAUAUAUAUCUCUU (ssRNA) [Ie_S1_P3E.2_K3.1_C3.2_H3.1_[+1TT]_A3.1_F3.1_T3.2] yielded a Kd of 5.47 nM.
For UCUCUUUGUACUGUUAUCUCUU (ssRNA) [Ib_S1_P5E.1_K5.1_C5.1_H5.1_A5.1_[T5C]_[A7G]_F5.1_T5.1], the Kd was 7.89 nM.
Work on UCUCUUCCCUUGUAUAUAUAUCUCUU (ssRNA) [Ie_S1_P3E.2_K3.1_C3.2_[+-2CC]_H3.1_A3.1_F3.1_T3.2] yielded a Kd of 7.06 nM.
UCUCUUCCCUCUUGUAUAUAUAUCUCUU (ssRNA) [Ie_S1_P3E.2_K3.1_C3.2_[+-2CCTC]_H3.1_A3.1_F3.1_T3.2] showed a Kd of 7.14 nM.
UCUCUUCUUCUGUAUAUAUAUCUCUU (ssRNA) [Ie_S1_P3E.2_K3.1_C3.2_H3.1_[+1CT]_A3.1_F3.1_T3.2] gave a Kd of 4.75 nM.
UCUCUUCUUCUUGUAUAUAUAUCUCUU (ssRNA) [Ie_S1_P3E.2_K3.1_C3.2_[+-1TCT]_H3.1_A3.1_F3.1_T3.2] gave a Kd of 4.28 nM.
With UCUCUUCUCCUUGUAUAUAUAUCUCUU (ssRNA) [Ie_S1_P3E.2_K3.1_C3.2_[+-2TCC]_H3.1_A3.1_F3.1_T3.2] the Kd was 4.39 nM.
UCUCUUCCCCUUUGUAUAUAUAUCUCUU (ssRNA) [Ie_S1_P3E.2_K3.1_C3.2_[+-2CCCT]_H3.1_A3.1_F3.1_T3.2] showed a Kd of 3.73 nM.
Work on UCUCUUCUCUCUCUGUAUAUAUAUCUCUU (ssRNA) [Ie_S1_P3E.2_K3.1_C3.2_[+-1CTCTC]_H3.1_A3.1_F3.1_T3.2] yielded a Kd of 3.89 nM.
Work on UCUCUUCUUCCUGUAUAUAUAUCUCUU (ssRNA) [Ie_S1_P3E.2_K3.1_C3.2_H3.1_[+1CCT]_A3.1_F3.1_T3.2] yielded a Kd of 5.41 nM.
UCUCUUCUCUUGUAUAUAUAUCUCUU (ssRNA) [Ie_S1_P3E.2_K3.1_C3.2_[+-2TC]_H3.1_A3.1_F3.1_T3.2] was tested, and the Kd was 4.74 nM.
For UCUCUUCUUCUCUGUAUAUAUAUCUCUU (ssRNA) [Ie_S1_P3E.2_K3.1_C3.2_H3.1_[+1CTCT]_A3.1_F3.1_T3.2], the Kd was 4.16 nM.
In the case of UCUCUUCUCUCUGUAUAUAUAUCUCUU (ssRNA) [Ie_S1_P3E.2_K3.1_C3.2_[+-1CTC]_H3.1_A3.1_F3.1_T3.2], the Kd is reported as 4.2 nM.
UCUCUUCUUUCCGUAUAUAUAUCUCUU (ssRNA) [Ie_S1_P3E.2_K3.1_C3.2_H3.1_[+1TCC]_A3.1_F3.1_T3.2] gave a Kd of 534 nM.
UCUCUUCCUUUUGUAUAUAUAUCUCUU (ssRNA) [Ie_S1_P3E.2_K3.1_C3.2_[+-2CTT]_H3.1_A3.1_F3.1_T3.2] showed a Kd of 5.14 nM.
UCUCUUCUCCUCUUGUAUAUAUAUCUCUU (ssRNA) [Ie_S1_P3E.2_K3.1_C3.2_[+-1CCTCT]_H3.1_A3.1_F3.1_T3.2] showed a Kd of 3.91 nM.
UCUCUUCUUCCUUGUAUAUAUAUCUCUU (ssRNA) [Ie_S1_P3E.2_K3.1_C3.2_[+-2TTCC]_H3.1_A3.1_F3.1_T3.2] was tested, and the Kd was 6.09 nM.
UCUCUUCUUUUUGUAUAUAUAUCUCUU (ssRNA) [Ie_S1_P3E.2_K3.1_C3.2_H3.1_[+1TTT]_A3.1_F3.1_T3.2] gave a Kd of 5.49 nM.
With UCUCUUCUCUCUUGUAUAUAUAUCUCUU (ssRNA) [Ie_S1_P3E.2_K3.1_C3.2_[+-2TCTC]_H3.1_A3.1_F3.1_T3.2] the Kd was 4.58 nM.
For UCUCUUCCUCUCUUGUAUAUAUAUCUCUU (ssRNA) [Ie_S1_P3E.2_K3.1_C3.2_[+-2CTCTC]_H3.1_A3.1_F3.1_T3.2], the Kd was 7.46 nM.
With UCUCUUCUUCCGUAUAUAUAUCUCUU (ssRNA) [Ie_S1_P3E.2_K3.1_C3.2_H3.1_[+1CC]_A3.1_F3.1_T3.2] the Kd was 1270 nM.
Work on UCUCUUCUCCCUUGUAUAUAUAUCUCUU (ssRNA) [Ie_S1_P3E.2_K3.1_C3.2_[+-1CCCT]_H3.1_A3.1_F3.1_T3.2] yielded a Kd of 2.61 nM.
UCUCUUCUCUCUUUGUAUAUAUAUCUCUU (ssRNA) [Ie_S1_P3E.2_K3.1_C3.2_[+-2TCTCT]_H3.1_A3.1_F3.1_T3.2] showed a Kd of 4.28 nM.
Work on UCUCUUUGUACUCUUAUCUCUU (ssRNA) [Ib_S1_P5E.1_K5.1_C5.1_H5.1_A5.1_[T5C]_[A7C]_F5.1_T5.1] yielded a Kd of 9.68 nM.
Binder UCUCUUCUUCCUUUGUAUAUAUAUCUCUU (ssRNA) [Ie_S1_P3E.2_K3.1_C3.2_[+-2TTCCT]_H3.1_A3.1_F3.1_T3.2] has a Kd of 6.01 nM.
With UCUCUUCUUUCUCGUAUAUAUAUCUCUU (ssRNA) [Ie_S1_P3E.2_K3.1_C3.2_H3.1_[+1TCTC]_A3.1_F3.1_T3.2] the Kd was 261 nM.
Work on B1 yielded a Kd of 1.71 nM.
For B2, the Kd was 1.28 nM.
B3 gave a Kd of 543 nM.
In the case of B4, the Kd is reported as 513 nM.
Binder B5 has a Kd of 2.73 nM.
B6 gave a Kd of 1020 nM.
Binder B7 has a Kd of 11.1 nM.
In the case of UCUCUUCUUCCUCGUAUAUAUAUCUCUU (ssRNA) [Ie_S1_P3E.2_K3.1_C3.2_H3.1_[+1CCTC]_A3.1_F3.1_T3.2], the Kd is reported as 475 nM.
Work on UCUCUUCUCCUGUAUAUAUAUCUCUU (ssRNA) [Ie_S1_P3E.2_K3.1_C3.2_[+-1CC]_H3.1_A3.1_F3.1_T3.2] yielded a Kd of 4.99 nM.
B8 was tested, and the Kd was 91.7 nM.
In the case of B9, the Kd is reported as 1.04 nM.
For B10, the Kd was 0.819 nM.
With B11 the Kd was > 2300 nM.
B12 was tested, and the Kd was 0.755 nM.
Work on B13 yielded a Kd of 1.79 nM.
B14 gave a Kd of 1.14 nM.
Binder B15 has a Kd of 1.14 nM.
Binder B16 has a Kd of 0.631 nM.
UCUCUUUGUAAUCUUAUCUCUU (ssRNA) [Ib_S1_P5E.1_K5.1_C5.1_H5.1_A5.1_[T5A]_[A7C]_F5.1_T5.1] showed a Kd of 12.1 nM.
In the case of UCUCUUUGUAAUGUUAUCUCUU (ssRNA) [Ib_S1_P5E.1_K5.1_C5.1_H5.1_A5.1_[T5A]_[A7G]_F5.1_T5.1], the Kd is reported as 12.7 nM.
Work on UCUCUUCUUUCCUUGUAUAUAUAUCUCUU (ssRNA) [Ie_S1_P3E.2_K3.1_C3.2_[+-1TTCCT]_H3.1_A3.1_F3.1_T3.2] yielded a Kd of 4.2 nM.
For UCUCUUCCCCUUUUGUAUAUAUAUCUCUU (ssRNA) [Ie_S1_P3E.2_K3.1_C3.2_[+-2CCCTT]_H3.1_A3.1_F3.1_T3.2], the Kd was 5.86 nM.
With UCUCUUCCUCUUGUAUAUAUAUCUCUU (ssRNA) [Ie_S1_P3E.2_K3.1_C3.2_[+-2CTC]_H3.1_A3.1_F3.1_T3.2] the Kd was 7.17 nM.
For UCUCUUUGUACUUUUAUCUCUU (ssRNA) [Ib_S1_P5E.1_K5.1_C5.1_H5.1_A5.1_[T5C]_[A7T]_F5.1_T5.1], the Kd was 3.92 nM.
With UCUCUUCUUCUCUUGUAUAUAUAUCUCUU (ssRNA) [Ie_S1_P3E.2_K3.1_C3.2_[+-1TCTCT]_H3.1_A3.1_F3.1_T3.2] the Kd was 5.94 nM.
In the case of UCUCUUCUUCUCGUAUAUAUAUCUCUU (ssRNA) [Ie_S1_P3E.2_K3.1_C3.2_H3.1_[+1CTC]_A3.1_F3.1_T3.2], the Kd is reported as 449 nM.
